Reference: doi:10.1101/824458 (bioRxiv, 2019)

Assays:
[1] = target: NS5A-ΔN39 (residues 39-447), recombinant, lacking the membrane-binding amphipathic helix (hepatitis C virus) (UniProt Q9WMX2); assay: cross-linking
[2] = target: the molecule itself; assay: cross-linking

With “NS5A-ΔN39 (residues 39-447), recombinant, lacking the membrane-binding amphipathic helix (from UniProt Q9WMX2 40-448) (domain or fragment)” the stoichiometry N [1] was 2.

B1: viperin-ΔN50 (residues 50-361), recombinant, C-terminal His6-tagged, iron-sulfur cluster reconstituted (domain or fragment, human, UniProt Q8WXG1 50-361, looked up)
chain: QLVLRGPDETKEEEEDPPLPTTPTSVNYHFTRQCNYKCGFCFHTAKTSFVLPLEEAKRGLLLLKEAGMEKINFSGGEPFLQDRGEYLGKLVRFCKVELRLPSVSIVSNGSLIRERWFQNYGEYLDILAISCDSFDEEVNVLIGRGQGKKNHVENLQKLRRWCRDYRVAFKINSVINRFNVEEDMTEQIKALNPVRWKVFQCLLIEGENCGEDALREAERFVIGDEEFERFLERHKEVSCLVPESNQKMKDSYLILDEYMRFLNCRKGRKDPSKSILDVGVEEAIKFSGFDEKMFLKRGGKYIWSKADLKLDW
B1 was tested, and the “stoichiometry N” value [2] was 2.

B2: VAP-33-ΔC20 (recombinant human VAP-33 protein, residues 1-227) (domain or fragment, UniProt Q9P0L0 1-227, looked up)
chain: MASASGAMAKHEQILVLDPPTDLKFKGPFTDVVTTNLKLRNPSDRKVCFKVKTTAPRRYCVRPNSGIIDPGSTVTVSVMLQPFDYDPNEKSKHKFMVQTIFAPPNTSDMEAVWKEAKPDELMDSKLRCVFEMPNENDKLNDMEPSKAVPLNASKQDGPMPKPHSVSLNDTETRKLMEECKRLQGEMMKLSEENRHLRDEGLRLRKVAHSDKPGSTSTASFRDNVTSP
For B2, the “stoichiometry N” value [2] was 2.
